According to PMC6698656, “Structural insights into dimethylation of 12S rRNA by TFB1M: indispensable role in translation of mitochondrial genes and mitochondrial function”:

How the values were obtained:
Conditions in all cases: protein: recombinant; tags: His6-MBP N-terminal, removed by TEV; label: 5'-FAM; hairpin
[1] = target: hsTFB1M Q177A (Homo sapiens, UniProt Q8WVM0 28-346, Q177A); experiment: EMSA; affinity improved to some degree; EMSA: 50 mM Tris-HCl pH 8.0, 25 mM NaCl, 100 nM RNA, TFB1M 0-2 mM as printed (legend suggests uM), 37 C 30 min; 6% native PAGE, 0.5x TBE
[2] = target: hsTFB1M E179A (Homo sapiens, UniProt Q8WVM0 28-346, E179A); experiment: as above
[3] = target: hsTFB1M F144A (Homo sapiens, UniProt Q8WVM0 28-346, F144A); experiment: EMSA; affinity not significantly changed vs WT; EMSA: 50 mM Tris-HCl pH 8.0, 25 mM NaCl, 100 nM RNA, TFB1M 0-2 mM as printed (legend suggests uM), 37 C 30 min; 6% native PAGE, 0.5x TBE
[4] = target: hsTFB1M Q35A (Homo sapiens, UniProt Q8WVM0 28-346, Q35A); experiment: as above
[5] = target: hsTFB1M N36A (Homo sapiens, UniProt Q8WVM0 28-346, N36A); experiment: as above
[6] = target: hsTFB1M V225A (Homo sapiens, UniProt Q8WVM0 28-346, V225A); experiment: as above
[7] = target: hsTFB1M R195A (Homo sapiens, UniProt Q8WVM0 28-346, R195A); experiment: EMSA; affinity not impaired; EMSA: 50 mM Tris-HCl pH 8.0, 25 mM NaCl, 100 nM RNA, TFB1M 0-2 mM as printed (legend suggests uM), 37 C 30 min; 6% native PAGE, 0.5x TBE
[8] = target: hsTFB1M E246A (Homo sapiens, UniProt Q8WVM0 28-346, E246A); experiment: as above
[9] = target: hsTFB1M I152A (Homo sapiens, UniProt Q8WVM0 28-346, I152A); experiment: as above

Measured: binding result

Sequence of hsTFB1M Q35A (Q8WVM0 28-346 Q35A): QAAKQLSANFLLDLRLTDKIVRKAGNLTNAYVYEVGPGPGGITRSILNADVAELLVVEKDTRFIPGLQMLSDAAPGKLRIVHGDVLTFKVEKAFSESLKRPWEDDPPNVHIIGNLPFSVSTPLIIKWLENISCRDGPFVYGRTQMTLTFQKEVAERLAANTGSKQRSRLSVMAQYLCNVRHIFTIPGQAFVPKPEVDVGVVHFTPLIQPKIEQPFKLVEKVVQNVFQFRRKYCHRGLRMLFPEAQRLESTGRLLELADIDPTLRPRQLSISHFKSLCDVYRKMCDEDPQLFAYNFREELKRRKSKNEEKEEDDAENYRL
Sequence of hsTFB1M Q177A (Q8WVM0 28-346 Q177A): as the sequence (Q8WVM0 28-346 Q35A) above, with A8Q, Q150A counted along it
Sequence of hsTFB1M F144A (Q8WVM0 28-346 F144A): as the sequence (Q8WVM0 28-346 Q35A) above, with A8Q, F117A counted along it
Sequence of hsTFB1M E179A (Q8WVM0 28-346 E179A): as the sequence (Q8WVM0 28-346 Q35A) above, with A8Q, E152A counted along it
Sequence of hsTFB1M N36A (Q8WVM0 28-346 N36A): as the sequence (Q8WVM0 28-346 Q35A) above, with A8Q, N9A counted along it
Sequence of hsTFB1M I152A (Q8WVM0 28-346 I152A): as the sequence (Q8WVM0 28-346 Q35A) above, with A8Q, I125A counted along it
Sequence of hsTFB1M E246A (Q8WVM0 28-346 E246A): as the sequence (Q8WVM0 28-346 Q35A) above, with A8Q, E219A counted along it
Sequence of hsTFB1M V225A (Q8WVM0 28-346 V225A): as the sequence (Q8WVM0 28-346 Q35A) above, with A8Q, V198A counted along it
Sequence of hsTFB1M R195A (Q8WVM0 28-346 R195A): as the sequence (Q8WVM0 28-346 Q35A) above, with A8Q, R168A counted along it

B1: 5'-FAM h45 RNA (WT) (structured_RNA)
RNA: GGUAAGUGUACUGGAAAGUGCACUUGCC
binds: all assays above
